Measurements as given in patent US20150098945A1 (Daiichi Sankyo, published 2015).
Blank lines part the entries; values can stand above or below the binder they belong to.

Columns and labels:
[1] = molecular target: T1, N-terminal FLAG-tagged human ROBO4 extracellular region/domain deletion variant hROBO4-132 (human, UniProt Q8WZ75 132-1007); experiment: flow cytometry, HEK293 cells transfected with pCI-FLAG-hROBO4-132, antibody at 10 µg/mL, anti-mouse IgG FITC; control histogram IgG (Mouse IgG2a)
T1 construct: On transfected HEK293 cells; also called pCI-FLAG-hROBO4-132; pCI-hROBO4-132
T1 sequence: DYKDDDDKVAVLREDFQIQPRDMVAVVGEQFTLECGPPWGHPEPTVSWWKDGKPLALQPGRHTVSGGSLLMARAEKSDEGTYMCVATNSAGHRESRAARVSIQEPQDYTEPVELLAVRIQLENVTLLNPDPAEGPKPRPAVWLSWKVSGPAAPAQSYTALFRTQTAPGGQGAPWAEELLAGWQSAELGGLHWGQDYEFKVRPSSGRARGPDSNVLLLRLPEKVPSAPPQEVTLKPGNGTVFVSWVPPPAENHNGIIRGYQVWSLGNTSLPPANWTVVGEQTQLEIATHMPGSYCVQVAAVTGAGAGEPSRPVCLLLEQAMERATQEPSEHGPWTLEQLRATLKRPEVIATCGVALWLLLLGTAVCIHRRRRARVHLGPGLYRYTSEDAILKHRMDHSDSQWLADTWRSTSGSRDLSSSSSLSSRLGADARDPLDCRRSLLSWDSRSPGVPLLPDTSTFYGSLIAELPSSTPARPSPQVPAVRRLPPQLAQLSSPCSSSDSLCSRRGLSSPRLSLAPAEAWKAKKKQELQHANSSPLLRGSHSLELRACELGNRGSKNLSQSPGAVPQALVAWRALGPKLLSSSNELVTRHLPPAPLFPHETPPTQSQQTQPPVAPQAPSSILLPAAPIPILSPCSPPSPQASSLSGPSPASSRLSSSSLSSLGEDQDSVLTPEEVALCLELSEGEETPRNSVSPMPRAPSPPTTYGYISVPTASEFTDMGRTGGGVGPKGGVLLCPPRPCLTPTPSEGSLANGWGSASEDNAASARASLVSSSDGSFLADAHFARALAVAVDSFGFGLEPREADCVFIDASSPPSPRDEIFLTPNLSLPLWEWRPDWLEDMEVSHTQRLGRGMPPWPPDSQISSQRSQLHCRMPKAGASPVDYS
Experimental: HEK293 cells were inoculated at a concentration of 1.5×10⁶ cells/dish to a 60-mm dish (manufactured by Corning Inc.) and cultured overnight in a DMEM medium containing 10% FBS at 37° C. under 5% CO₂ conditions. […] On the next day, the expression vector-transfected cells were treated with TrypLE Express (manufactured by Life Technologies Corp.), washed with PBS containing 5% FBS, and then suspended in PBS containing 5% FBS. The obtained cell suspension was used in flow cytometry analysis.
Each cell suspension prepared in 4)-5-1 was centrifuged, and the supernatant was removed. Then, MAb1, a positive control Monoclonal ANTI-FLAG M2 antibody produced in mouse, or a negative control Mouse IgG2a was added at a concentration of 10 μg/mL to 2×10⁵ expression vector-transfected cells, and the resulting suspension was left standing at 4° C. for 1 hour. The cells were washed once with PBS containing 5% FBS. Then, Anti-Mouse IgG FITC conjugate diluted 1000-fold with PBS containing 5% FBS was added thereto, and the resulting suspension was left standing at 4° C. for 1 hour. […] Data was analyzed using Flowjo. The histogram of FITC fluorescence intensity was prepared. The antibody was determined to bind to a cell when the histogram of MAb1 was shifted to a stronger fluorescence intensity region compared with the histogram of the negative control Mouse IgG2a. […]

[2] = molecular target: T2, human ROBO3 (pCI-hROBO3-transfected HEK293 cells) (human, UniProt Q96MS0 21-1386); experiment: flow cytometry on transfected HEK293 cells
T2 sequence: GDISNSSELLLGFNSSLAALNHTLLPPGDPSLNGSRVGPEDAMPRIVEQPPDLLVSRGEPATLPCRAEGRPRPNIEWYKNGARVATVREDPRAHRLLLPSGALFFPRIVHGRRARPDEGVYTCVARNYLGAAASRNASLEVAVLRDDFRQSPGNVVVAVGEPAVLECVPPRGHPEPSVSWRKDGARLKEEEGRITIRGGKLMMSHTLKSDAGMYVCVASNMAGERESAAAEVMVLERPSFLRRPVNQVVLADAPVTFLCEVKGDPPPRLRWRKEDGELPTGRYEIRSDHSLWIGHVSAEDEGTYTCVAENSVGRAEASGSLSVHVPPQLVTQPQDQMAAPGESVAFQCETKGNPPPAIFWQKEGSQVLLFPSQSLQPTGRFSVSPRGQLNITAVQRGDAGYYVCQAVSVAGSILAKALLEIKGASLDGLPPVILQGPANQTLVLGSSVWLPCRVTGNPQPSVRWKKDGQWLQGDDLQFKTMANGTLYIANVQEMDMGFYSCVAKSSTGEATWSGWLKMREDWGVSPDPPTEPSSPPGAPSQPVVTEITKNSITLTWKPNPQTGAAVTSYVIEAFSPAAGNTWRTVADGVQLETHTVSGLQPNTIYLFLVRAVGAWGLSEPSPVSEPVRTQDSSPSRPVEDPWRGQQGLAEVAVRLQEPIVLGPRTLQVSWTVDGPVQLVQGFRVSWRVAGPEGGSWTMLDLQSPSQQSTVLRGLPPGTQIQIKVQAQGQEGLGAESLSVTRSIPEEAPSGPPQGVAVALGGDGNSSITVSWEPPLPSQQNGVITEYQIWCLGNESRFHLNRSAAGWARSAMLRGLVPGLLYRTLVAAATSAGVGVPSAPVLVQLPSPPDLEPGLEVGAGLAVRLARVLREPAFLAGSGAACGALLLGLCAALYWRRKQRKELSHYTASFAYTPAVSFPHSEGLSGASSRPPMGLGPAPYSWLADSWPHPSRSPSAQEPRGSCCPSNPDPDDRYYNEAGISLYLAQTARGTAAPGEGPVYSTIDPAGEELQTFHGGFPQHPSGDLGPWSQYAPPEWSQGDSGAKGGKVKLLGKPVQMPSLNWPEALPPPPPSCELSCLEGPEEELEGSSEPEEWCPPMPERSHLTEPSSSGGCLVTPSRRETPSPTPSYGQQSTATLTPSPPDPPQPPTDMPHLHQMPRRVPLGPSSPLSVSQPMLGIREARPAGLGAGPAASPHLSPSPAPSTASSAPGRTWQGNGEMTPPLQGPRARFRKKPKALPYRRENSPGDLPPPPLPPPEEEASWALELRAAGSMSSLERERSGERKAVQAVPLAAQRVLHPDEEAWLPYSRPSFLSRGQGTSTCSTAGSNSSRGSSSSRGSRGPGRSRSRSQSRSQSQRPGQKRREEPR

binding result [1]: binds
B1: anti-ROBO4 mouse monoclonal antibody MAb1 (antibody, mouse IgG1, V domains shown)
VH: EVQLVESGGGLVKPGGSLKLSCAASGFTFSTYAMSWVRQTPEKRLEWVATISNGGTYTYYPDSVKGRFTISRDNAENTLYLQMSSLRSEDTAMYFCARLIYYDYLDYWGHGTTLTVSS
VL: DAVMTQTPLSLPVSLGDQASISCRSSQSLENSNGNTYLNWYFQKPGQSPQLLIYRVSNRFSGVLDRFSGSGSGTDFTLKISRVEAEDFGVYFCLQVTHVPWTFGGGTKLEIKR
notes: Mouse IgG1 (gamma1), kappa light chain, purified from hybridoma supernatant; also called parent antibody MAb1

B2: humanized MAb1 antibody H-1140 (antibody, human IgG2, kappa, V domains shown)
VH: EVQLVESGGGLVQPGGSLRLSCAASGFTFSTYAMSWVRQAPGKGLEWVATISQGGTYTYYPDSVKGRFTISRDNAKNTLYLQMNSLRAEDTAVYYCARLIYYDYLDYWGQGTLVTVSS
VL: DIVMTQSPLSLPVTLGEPASISCRSSQSLENSNGNTYLNWYLQKPGQSPQLLIYRVSNRFSGVPDRFSGSGSGTDFTLKISRVEAEDVGVYYCLQVTHVPWTFGPGTKVDIKR
notes: Human IgG2 / kappa constant regions; also called hMAb1-H2-type heavy chain + hMAb1-L1-type light chain
binding result [2]: no binding (tested: 10 µg/mL (method of 4)-4-2))
